Test results from patent publication US20220306728A1 (VIR BIOTECHNOLOGY, published 2022).

How the values were obtained:
[1] = molecular target: H3N2 representative viral strain (hemagglutinin), Example 6; experiment: cell-based or functional assay
[2] = molecular target: H1N1 representative viral strain (hemagglutinin), Example 6; experiment: cell-based or functional assay

B1: FluAB_MLNS (antibody)
heavy: not shown
light: DIQMTQSPSSLSASVGDRVTITCRTSQSLSSYTHWYQQKPGKAPKLLIYAASSRGSGVPSRFSGSGSGTDFTLTISSLQPEDFATYYCQQSRTFGQGTKVEIKRTVAAPSVFIFPPSDEQLKSGTASVVCLLNNFYPREAKVQWKVDNALQSGNSQESVTEQDSKDSTYSLSSTLTLSKADYEKHKVYACEVTHQGLSSPVTKSFNRGEC
What does the source list for B1?
IC50 of in vitro neutralization (MDCK cells, neuraminidase activity read-out) [1]: 17.9 nM; IC50 of in vitro neutralization (MDCK cells, neuraminidase activity read-out) [2]: 15.6 nM
